Assay: Protein caging and uncaging, particle counting of TEM images
Format: physicochemical
Settings: low power light irradiation for 60 seconds (302 nm)
Procedure: BSA was directly caged through the reaction of our crosslinker with the surface amino groups on the protein. Streptavidin was indirectly caged by attaching biotin-amine to the nanocage cavity and then subsequently mixing with the protein. […] None were seen tethered to the cage exterior.
TEM samples were prepared by placing 3 μL of sample solution onto a carbon coated grid (FCF400-Cu, Electron Microscopy Sciences) which was previously charged using a plasma etcher (30 seconds of irradiation). After 2 minutes, the solution was wicked away from the grid with filter paper (Whatman 50 hardened). The grid was immediately treated with stain for 30 seconds and excess solution was wicked away. The remaining solution on the grid was evaporated at room temperate prior to imaging. TEM images were acquired with an FEI Tecnai Spirit Transmission Electron Microscope operated at 80 kV. Saturated uranyl formate (in ddH2O prepared freshly before usage) was used for protein caging experiments and 2% uranyl acetate (diluted with ddH2O from 4%, Electron Microscopy Sciences) was used for all other samples.
Protein containing nanocages were created following the general cavity functionalization protocol. 5 equivalents per oligo handle were used. […] The extent of uncaging was analyzed using particle counting of the TEM images. The entirety of each TEM image was analyzed to avoid bias.

Q: Which “nanocages containing protein after light irradiation” value does the source give for streptavidin here?
A: 9%

Q: And the uncaging efficiency?
A: 87%

Reference: patent US10617759B2, “Light-stimulated release of cargo from oligonucleotides” (Trustees of Boston University, priority 2016, dated 2020)
